The target in this experiment is F-actin (actin purified from chicken breast, polymerized and phalloidin-stabilized) (chicken) (UniProt P68139). As to the kind of experiment: co-sedimentation.

This passage reports stoichiometry N results from paper PMC6173970.

As for “6xHis-FLNaABD-A128V (from UniProt P21333 1-278) (domain or fragment)”, the stoichiometry N (as a rule, the number of molecules, sites or subunits per partner or assembly) stood at 1. Take “6xHis-FLNaABD-wt (human filamin A actin-binding domain, wild type) (from UniProt P21333 1-278) (domain or fragment)”: the stoichiometry N is 1. As to “6xHis-FLNaABD-Q170P (from UniProt P21333 1-278) (domain or fragment)”, the stoichiometry N stood at 1. Under “6xHis-FLNaABD-E254K (domain or fragment)” stands 1.
